The target in the assay is Bacillus subtilis GapA (glyceraldehyde-3-phosphate dehydrogenase), His-tagged (Bacillus subtilis) (UniProt P09124).
Sequence of UniProt P09124 (P09124 whole entry): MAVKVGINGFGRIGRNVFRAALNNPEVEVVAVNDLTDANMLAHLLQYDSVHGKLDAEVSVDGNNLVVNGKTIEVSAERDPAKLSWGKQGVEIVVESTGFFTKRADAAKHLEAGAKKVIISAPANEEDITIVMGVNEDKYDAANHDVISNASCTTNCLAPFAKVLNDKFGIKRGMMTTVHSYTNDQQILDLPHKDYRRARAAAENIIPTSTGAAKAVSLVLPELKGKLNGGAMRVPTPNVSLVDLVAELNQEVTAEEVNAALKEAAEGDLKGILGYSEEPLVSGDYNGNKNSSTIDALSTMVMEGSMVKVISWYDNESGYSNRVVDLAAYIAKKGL

B1: Bacillus subtilis HPr-G54D, His-tagged (natural protein)
chain: MAQKTFKVTADSGIHARPATVLVQTASKYDADVNLEYNGKTVNLKSIMGVMSLDIAKGAEITISASGADENDALNALEETMKSEGLGE
As for B1, the catalytic efficiency kcat/KM of GapA with E4P in the presence of HPr-G54D (GAPDH alone: 1.05) was 730 M⁻¹ s⁻¹ and the catalytic efficiency kcat/KM of GapA with G3P in the presence of HPr-G54D (GAPDH alone: 219) was 68500 M⁻¹ s⁻¹.

B2: Bacillus subtilis HPr-S46E, G54D, His-tagged (natural protein)
chain: MAQKTFKVTADSGIHARPATVLVQTASKYDADVNLEYNGKTVNLKEIMGVMSLDIAKGAEITISASGADENDALNALEETMKSEGLGE
Regarding B2, the catalytic efficiency kcat/KM of GapA with E4P in the presence of HPr-G54D, S46E (GAPDH alone: 1.05) is 3780 M⁻¹ s⁻¹ and the catalytic efficiency kcat/KM of GapA with G3P in the presence of HPr-G54D, S46E (GAPDH alone: 219) amounted to 164000 M⁻¹ s⁻¹.

B3: Bacillus subtilis HPr-S46E, His-tagged (natural protein)
chain: MAQKTFKVTADSGIHARPATVLVQTASKYDADVNLEYNGKTVNLKEIMGVMSLGIAKGAEITISASGADENDALNALEETMKSEGLGE
With B3, the catalytic efficiency kcat/KM of GapA with E4P in the presence of HPr-S46E (GAPDH alone: 1.05) is 2600 M⁻¹ s⁻¹ and the catalytic efficiency kcat/KM of GapA with G3P in the presence of HPr-S46E (GAPDH alone: 219) was 38800 M⁻¹ s⁻¹.

B4: Bacillus subtilis histidine-containing phosphocarrier protein (HPr), His-tagged (natural protein)
chain: MAQKTFKVTADSGIHARPATVLVQTASKYDADVNLEYNGKTVNLKSIMGVMSLGIAKGAEITISASGADENDALNALEETMKSEGLGE
Take B4: the catalytic efficiency kcat/KM of GapA with E4P in the presence of HPr (GAPDH alone: 1.05) was found to be 1880 M⁻¹ s⁻¹ and the catalytic efficiency kcat/KM of GapA with G3P in the presence of HPr (GAPDH alone: 219) turned out to be 57400 M⁻¹ s⁻¹.

These data come from PMC12445079.
